Measurements reported in article PMC2323298 (PLoS Pathogens, 2007).

Legend:
[1] = target: T1, AMA1 (apical membrane antigen 1) domains I+II (Plasmodium falciparum 3D7, UniProt Q7KQK5); test: crystal structure; AMA1 domains I+II and 1F9 Fab mixed (Fab in slight excess); 20 mM MES pH 6.0, 10 mM MnCl2, 6% PEG 3350, hanging drops; two crystal forms; conditions: both partners purified
T1 construct: also called AMA1 domains I+II

[2] = target: T2, 3D7 AMA1 domain I expressed on M13 phage (Plasmodium falciparum 3D7, UniProt Q7KQK5); test: ELISA; conditions: one partner purified
T2 construct: also called 3D7 domain I; domain I AMA1

[3] = target: T3, Full-length 3D7 AMA1 ectodomain (Plasmodium falciparum 3D7, UniProt Q7KQK5); test: ELISA; competition ELISA: 100 ul of 0.3 ug/ml full-length AMA1 ectodomain immobilised on plastic; dilutions of human plasma added, followed by 10 ul of 3.0 ug/ml mAb; peroxidase-conjugated anti-mouse antibodies; conditions: both partners purified
T3 construct: also called recombinant full-length 3D7 AMA1 ectodomain; full-length recombinant AMA1

B1: 1F9 Fab fragment (Fab, V domains shown)
VH: EVQLQQSGAELLRPGASVKLSCIVSGFKIKDTSMHWVKQRPEQGLEWIGRIDPANDNSEYDPKFQGKATITADTSSNTAYLQLSSLTSEDTAVYYCTLSHFWGQGTTLTVSS
VL: SIVMTQTPKFLPVSAGDRVTIICKASQSVSNDVVWYQQKPGQSPKLLIYYASIRYTGVPDRFTGSGYGTDFTFTISTVQVEDLAVYFCQQGFSSPRTFGGGTKLEIN
notes: also called Fab 1F9
binding result [1]: binds

B2: Mouse monoclonal antibody 1F9 (isotype IgG2b with a Kappa light chain) (antibody, V domains shown)
VH: B1 VH
VL: B1 VL
notes: also called mAb 1F9
binding result [2]: binds | binding result [3]: binds
